The values that follow come from PMC2948513 (PLoS ONE, 2010).

Non-standard residues stand in square brackets, D forms with d. No end group written: not given here. *: point of attachment. Biotin = O=C1N[C@H]2[C@H](CS[C@H]2CCCCC(=O)*)N1; pS = N[C@@H](COP(=O)(O)O)C(=O)O

Experiment [1] has as its target Ezrin N-terminus, 1-310 (UniProt P15311). Nature of the experiment: biotin-peptide streptavidin-agarose pull-down, MBP blot. The note with it: reference: non-phosphorylated NEP-NT peptide; sites S6.
Experiment [2] has as its target PTEN C-terminal domain, 367-403 (UniProt P60484). Nature of the experiment: biotin-peptide streptavidin-agarose pull-down, PTEN blot. The note with it: reference: non-phosphorylated NEP-NT peptide; sites S6.
For experiment [3] the target is unchanged. Nature of the experiment: SPR, peptide on streptavidin chip. The settings on record: reference: non-phosphorylated NEP-NT peptide; sites S6. On the technique in general: SPR reads the build-up and loss of mass on a sensor chip optically.
The target in experiment [4] is Ezrin N-terminus, 1-310 (UniProt P15311). Nature of the experiment: SPR, peptide on streptavidin chip. The note with it: reference: non-phosphorylated NEP-NT peptide; sites S6.
Experiment [5] addresses T1, fusion protein of the maltose binding protein (MBP) and the N-terminus of Ezrin (amino acids 1-310) (human, UniProt P15311 1-310).
T1 construct: Ezrin, human, N-terminus, amino acids 1-310; Cloned into the EcoRI/SalI sites of pMAL-c2; also called MBP-Ezrin-NT; MBP Ezrin-NT; source: E. coli DH5α, precipitated by Amylose-resin
Description: SPR; Biacore3000; biotin-labeled NEP peptides coupled to streptavidin (SA) chip to ~1000 RU; HBS-P buffer (10 mM HEPES pH 7.4, 150 mM NaCl, 0.005% Surfactant P20), 25°C, 30 µl/min; reference surface without peptide subtracted; MBP Ezrin-NT 0.05-0.8 µM, GST PTEN-CT 1.6-12.8 µM. The note with it: both partners purified.

In the case of “Neprilysin (NEP, CD10) N-terminal cytoplasmic domain, 2-23 (from UniProt P08473) pSer6 peptide (pNEP-NT)”, the “binding against the reference” value in experiment [1] is on record as “same”; in experiment [2], “weaker”. In addition, the values for the KD entry in experiment [3] and in experiment [4] were “weaker; reference ∼0,71” and “same; reference ∼5.8”, respectively.

B1: synthetic biotin-labeled peptide representing the N-terminal cytoplasmic domain (aa 2-23) of human NEP, non-phosphorylated (peptide)
peptide: GKSESQMDITDINTPKPKKKQRK(Biotin)
notes: neprilysin (NEP, neutral endopeptidase 24.11, CD10), human, N-terminal cytoplasmic domain, amino acids 2-23; C-terminal lysine that carries the biotin, named in words only; It is surmised that the biotinylated lysine is an extra residue after aa 23; also called NEP-NT; non-phosphorylated NEP-NT; source: synthetic peptide (Peptide Specialty Labs, Heidelberg)
What is called Kd is the concentration at which binding is half-saturated. Higher therefore signals weaker binding. Turning to B1, the Kd in experiment [5] was approximately 5.8 nM.

B2: synthetic biotin-labeled peptide representing the N-terminal cytoplasmic domain (aa 2-23) of human NEP with serine 6 phosphorylated (peptide)
peptide: GKSE[pS]QMDITDINTPKPKKKQRK(Biotin)
notes: neprilysin (NEP, neutral endopeptidase 24.11, CD10), human, N-terminal cytoplasmic domain, amino acids 2-23, serine 6 phosphorylated; C-terminal lysine that carries the biotin, named in words only; It is surmised that the biotinylated lysine is an extra residue after aa 23; also called pNEP-NT; phosphorylated NEP-NT; source: synthetic peptide (Peptide Specialty Labs, Heidelberg)
The molecule B2 displayed a dissociation constant Kd in experiment [5] of approximately 5.9 nM.
